Measured values published in the Immune Epitope Database (IEDB).
Values belong to the sequence of their own block, whether it stands above or below them.

What was measured:
Assay in all cases: IEDB peptide-MHC binding, purified MHC/direct/fluorescence; filed as Kd, often an IC50 or EC50 that approximates it; ≥ and ≤ were set here for values at or beyond the usual limits of such assays
Details in all cases: source organism: Homo sapiens
HLA-B*08:01 = biological target: HLA-B*08:01
HLA-B*13:02 = biological target: HLA-B*13:02
HLA-C*01:02 = biological target: HLA-C*01:02
HLA-A*02:01 = biological target: HLA-A*02:01
HLA-C*07:01 = biological target: HLA-C*07:01
HLA-A*24:02 = biological target: HLA-A*24:02

Kd (HLA-B*13:02): ≥ 10000 nM
Sequence: ELPKYGVKV

Kd (HLA-B*08:01): 100 nM
Sequence: FLHEKQHEL

Kd (HLA-C*07:01): 1000 nM
Sequence: KRPTPTFHS

Kd (HLA-A*02:01): 100 nM
Sequence: LLMEKEDYHSL

Kd (HLA-A*02:01): 100 nM
Sequence: QLPDSVNQL

More lines, now with the values behind:

Sequence: DMKARQEAL
Kd (HLA-B*08:01): 100 nM

Sequence: FLPWHRLFL
Kd (HLA-C*01:02): 100 nM

Sequence: HLIDPNTLQV
Kd (HLA-A*02:01): 10 nM

Sequence: RSLEYLPLRF
Kd (HLA-A*24:02): ≥ 10000 nM

Sequence: SYLEQASRI
Kd (HLA-A*24:02): 1000 nM

Sequence: YIHGGGWAL
Kd (HLA-B*08:01): 100 nM
